The results in this text go back to patent publication US8409583B2, “Engineered versions of CgtB (β-1,3 galactosyltransferase) enzymes, with enhanced enzymatic properties” (National Research Council of Canada, priority 2007, dated 2013).

Holding throughout (type): biochemical
A short description of data set [1]: CgtB activity assay (capillary electrophoresis), acceptor GM2-FCHASE. The following applies: for Relative activity (%): GM2-FCHASE at 0.5 mM, reference (100%) GM2-FCHASE for CgtBOH4384 and CgtB11168, GA2-FCHASE for CgtBHS:10, average of three experiments; for Specific Activity (mU/mg) on a given FCHASE-labeled acceptor: purified enzyme, 1 mM GM2-FCHASE. How it is done:
(§1) The oligosaccharide acceptors and the interferon alpha 2b (IFNα2b) peptide (VGVTETP, corresponding to positions 103-109 of the mature IFNα2b protein) were labeled with FCHASE as previously described (Wakarchuk, W. et al., J Biol. Chem. 271:19166-19173 (1996)). IFNα2b-FCHASE was purified by reverse-phase chromatography using a PRP-1 column (10×250 mm, Hamilton Company, Reno, Nev.) in 10 mM ammonium acetate pH 5.5 with a gradient of acetonitrile (0-100% over 4 column volumes). CgtB activity assays were done in cell lysates or using purified enzyme in 50 mM MES pH 6.0, 0.5 mM of FCHASE-acceptor (unless otherwise indicated), 10 mM MnCl2, 10 mM DTT, 1 mM UDP-Gal at 37° C. from 5 to 30 minutes. All reactions were stopped by addition of 10 μL of 50% acetonitrile, 10 mM EDTA and 1% SDS and were diluted with H2O to obtain 10-15 μM final concentration of the FCHASE-labeled compounds. The samples were analyzed by capillary electrophoresis as described previously (Wakarchuk, W. W. et al., Methods Mol. Biol. 213:263-274 (2003)) except that a P/ACE MDQ Capillary Electrophoresis System equipped with a Laser module 488 (Beckman Coulter, Calif.) was used. Quantitation of the reactions was performed by integration of the trace peaks using the MDQ 32 Karat software.

A short description of data set [2]: CgtB activity assay (capillary electrophoresis), acceptor GalNAcβ-FCHASE. Particulars: for Relative activity (%): GalNAcβ-FCHASE at 0.5 mM, reference (100%) GM2-FCHASE for CgtBOH4384 and CgtB11168, GA2-FCHASE for CgtBHS:10, average of three experiments; for Specific Activity (mU/mg) on a given FCHASE-labeled acceptor: purified enzyme, 3 mM GalNAcβ-FCHASE. Here is the method: as §1, with “CgtB activity assays were done in cell lysates or using purified enzyme in 50 mM MES pH 6.0, 0.5 mM of FCHASE-acceptor (unless otherwise indicated), 10 mM MnCl2, 10 mM DTT, 1 mM UDP-Gal at 37° C. from 5 to 30 minutes.” left out

Data set [3] is described as follows: CgtB activity assay (capillary electrophoresis), acceptor GA2-FCHASE. The following applies: GA2-FCHASE at 0.5 mM; reference (100%) GM2-FCHASE for CgtBOH4384 and CgtB11168, GA2-FCHASE for CgtBHS:10; average of two experiments. How it is done: as §1
A short description of data set [4]: CgtB activity assay (capillary electrophoresis), acceptor lyso-GM2-FCHASE. Particulars: lysoGM2-FCHASE at 0.5 mM; reference (100%) GM2-FCHASE for CgtBOH4384 and CgtB11168, GA2-FCHASE for CgtBHS:10; average of three experiments. How it is done:
as §1

Data set [5] can be described thus: CgtB activity assay (capillary electrophoresis), acceptor GalNAcα-FCHASE. The following applies: for Relative activity (%): GalNAcα-FCHASE at 0.5 mM, reference (100%) GM2-FCHASE for CgtBOH4384 and CgtB11168, GA2-FCHASE for CgtBHS:10, average of two experiments; for Specific Activity (mU/mg) on a given FCHASE-labeled acceptor: purified enzyme, 3 mM GalNAcα-FCHASE. How it is done:
as §1, with “CgtB activity assays were done in cell lysates or using purified enzyme in 50 mM MES pH 6.0, 0.5 mM of FCHASE-acceptor (unless otherwise indicated), 10 mM MnCl2, 10 mM DTT, 1 mM UDP-Gal at 37° C. from 5 to 30 minutes.” left out

The subject of the next data set is IFNα2b[Tn]-FCHASE. The data set is described as follows: CgtB activity assay (capillary electrophoresis), glycopeptide acceptor IFNα2b[Tn]-FCHASE. The following applies: purified enzyme; 1 mM IFNα2b[Tn]-FCHASE. Here is the method:
as §1
The IFNα2b protein was purchased from Cell Sciences (Canton, Mass.). […]

B1: CJL-20: Full length CgtB from C. jejuni NCTC 11168 fused to MalE at the N-terminus (protein)
chain: MSQISIILPTYNVEKYIARALESCINQTFKDIEIIVVDDCGNDKSIDIAKEYASKDDRIKIIHNEENLKLLRARYEGAKVATSPYIMFLDSDDYLELNACEECIKILDMGGGGKIDLLCFEAFITNAKKSIKKLNIKQGKYNNKEFTMQILKTKNPFWTMWAKIIKKDIYLKAFNMLNLKKEIKINMAEDALLYYPLTILSNEIFYLTQPLYTQHVNSNSITNNINSLEANIQEHKIVLNVLKSIKNKKTPLYFLIIYLLKIQLLKYEQNFNKRNINLIYYKINILYQKYQFKWKKFLYNLIP
modifications: left off: large carriers
notes: Full length CgtB from C. jejuni NCTC 11168 fused to MalE at the N-terminus
On to B1, for which the “Relative activity (%)” value is recorded as 100^4% in data set [1]; 50.5^4% in data set [2]; 8.8^3% in data set [3]; 606.2^4% in data set [4]; 3.0^3% in data set [5]. Further, the “Specific Activity (mU/mg) on a given FCHASE-labeled acceptor” value in data set [1] is recorded as 27 mU/mg; in data set [2], 40.4 mU/mg; in data set [5], 13.6 mU/mg.

B2: CJL-10: Full length CgtB β-1,3-galactosyltransferase from C. jejuni OH4384 fused to E. coli MalE (maltose binding protein) at the N-terminus (protein)
chain: MFKISIILPTYNVEQYIARAIESCINQTFKDIEIIVVDDCGNDNSINIAKEYSKKDKRIKIIHNEKNLGLLRARYEGVKVANSPYIMFLDPDDYLELNACEECIKILDEQDEVDLVFFNAIVESNVISYKKFDFNSGFYSKKEFVKKIIAKKNLYWTMWGKLIRKKLYLEAFASLRLEKDVKINMAEDVLLYYPMLSQAQKIAYMNCNLYHYVPNNNSICNTKNEVLVKNNIQELQLVLNYLRQNYILNKYCSVLYVLIKYLLYIQIYKIKRTKLMVTLLAKINILTLKILFKYKKFLKQC
modifications: left off: large carriers
As for B2, the “Relative activity (%)” value in data set [1] is given as 100^4%; in data set [2], 47.5^4%; in data set [3], 29^3%; in data set [4], 444^4%; in data set [5], 6.4^3%. Moreover, the “Specific Activity (mU/mg) on a given FCHASE-labeled acceptor” value in data set [1] is 210 mU/mg; in data set [2] it was 192 mU/mg; with IFNα2b[Tn]-FCHASE it was 83.5 mU/mg; in data set [5], 158^1 mU/mg.
